According to US9127040B2, “Regulation of sodium channels by PLUNC proteins” (The University of North Carolina at Chapel Hill, priority 2011, dated 2015):

Assays:
ENaC = target: T1, ENaC (Homo sapiens, UniProt P37088+P51168+P51170); assay: Transepithelial voltage (PD), thin film conditions, human bronchial epithelial cultures; assay type: cell-based
T1 construct: measured the transepithelial voltage under thin film conditions in human bronchial epithelial cultures; endogenous in cells; host or cells: primary human bronchial epithelial cultures (normal or CF donors)
T1 sequence (P37088 1-669): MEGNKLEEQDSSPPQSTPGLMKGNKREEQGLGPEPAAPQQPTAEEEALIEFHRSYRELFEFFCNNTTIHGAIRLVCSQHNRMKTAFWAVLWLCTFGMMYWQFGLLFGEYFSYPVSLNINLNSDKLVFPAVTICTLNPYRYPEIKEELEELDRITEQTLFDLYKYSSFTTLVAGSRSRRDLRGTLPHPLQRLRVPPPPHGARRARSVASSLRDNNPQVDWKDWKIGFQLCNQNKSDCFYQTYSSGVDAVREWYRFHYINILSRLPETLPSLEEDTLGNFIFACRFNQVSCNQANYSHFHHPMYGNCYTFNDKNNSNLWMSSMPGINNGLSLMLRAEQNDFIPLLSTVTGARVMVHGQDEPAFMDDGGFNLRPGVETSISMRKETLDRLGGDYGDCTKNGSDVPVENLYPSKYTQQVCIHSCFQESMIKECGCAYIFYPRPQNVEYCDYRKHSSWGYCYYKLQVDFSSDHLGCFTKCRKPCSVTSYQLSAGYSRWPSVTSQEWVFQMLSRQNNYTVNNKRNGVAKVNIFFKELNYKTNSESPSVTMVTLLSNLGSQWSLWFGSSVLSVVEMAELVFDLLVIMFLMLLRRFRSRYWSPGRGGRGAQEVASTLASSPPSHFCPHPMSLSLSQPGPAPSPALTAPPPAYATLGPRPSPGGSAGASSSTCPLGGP
T1 sequence (P51168 1-640): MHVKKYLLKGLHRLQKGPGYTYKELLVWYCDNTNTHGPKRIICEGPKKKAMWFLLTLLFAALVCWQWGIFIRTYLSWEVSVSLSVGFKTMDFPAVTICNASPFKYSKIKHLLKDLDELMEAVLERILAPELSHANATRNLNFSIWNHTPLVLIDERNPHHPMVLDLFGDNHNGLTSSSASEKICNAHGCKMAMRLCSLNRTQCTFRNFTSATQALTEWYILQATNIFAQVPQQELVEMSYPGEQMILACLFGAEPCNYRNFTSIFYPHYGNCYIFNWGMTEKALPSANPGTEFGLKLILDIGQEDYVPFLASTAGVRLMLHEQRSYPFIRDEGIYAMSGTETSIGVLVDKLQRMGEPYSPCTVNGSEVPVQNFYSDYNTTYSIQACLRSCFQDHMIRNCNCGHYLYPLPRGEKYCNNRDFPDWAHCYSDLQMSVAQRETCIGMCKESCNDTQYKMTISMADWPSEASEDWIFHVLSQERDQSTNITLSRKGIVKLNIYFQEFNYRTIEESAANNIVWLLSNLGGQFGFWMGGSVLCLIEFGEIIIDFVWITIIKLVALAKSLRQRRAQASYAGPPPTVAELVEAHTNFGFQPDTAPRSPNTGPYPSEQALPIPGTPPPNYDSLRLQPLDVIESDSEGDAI
T1 sequence (P51170 1-649): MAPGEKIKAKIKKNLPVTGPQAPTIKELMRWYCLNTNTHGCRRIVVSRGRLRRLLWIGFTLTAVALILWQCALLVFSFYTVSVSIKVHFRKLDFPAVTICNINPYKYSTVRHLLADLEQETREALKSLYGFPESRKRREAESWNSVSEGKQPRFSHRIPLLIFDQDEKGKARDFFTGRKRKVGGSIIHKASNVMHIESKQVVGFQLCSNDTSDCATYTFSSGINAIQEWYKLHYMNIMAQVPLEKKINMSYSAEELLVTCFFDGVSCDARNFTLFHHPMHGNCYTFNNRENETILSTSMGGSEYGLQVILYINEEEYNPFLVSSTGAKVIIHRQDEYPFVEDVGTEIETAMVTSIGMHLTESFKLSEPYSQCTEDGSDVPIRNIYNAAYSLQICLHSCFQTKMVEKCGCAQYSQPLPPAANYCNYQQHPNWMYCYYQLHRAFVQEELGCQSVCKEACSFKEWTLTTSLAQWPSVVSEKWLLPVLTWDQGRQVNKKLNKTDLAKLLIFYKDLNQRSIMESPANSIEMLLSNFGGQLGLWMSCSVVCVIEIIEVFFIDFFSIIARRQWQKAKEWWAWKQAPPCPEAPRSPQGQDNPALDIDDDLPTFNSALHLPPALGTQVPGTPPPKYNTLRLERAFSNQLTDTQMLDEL
Source text: Tissue procurement and cell culture: Cells were harvested by enzymatic digestion from human bronchial tissue as previously described under a protocol approved by the UNC School of Medicine IRB (Tarran et al., J. Gen. Physiol. 127:591 (2006)). Human excess donor lungs and excised recipient lungs were obtained at the time of lung transplantation from portions of main stem or […] bronchi and cells were harvested by enzymatic digestion. All preparations were maintained at an air-liquid interface in a modified bronchial epithelial medium and used 2-5 weeks after seeding on 12 mm T-Clear inserts (Corning Costar) coated with human placental type VI collagen (Sigma). Phosphate buffered saline (PBS) was used for washing human bronchial epithelial culture mucosal surfaces. HBECs were maintained at an air-liquid interface in a modified bronchial epithelial growth medium (BEGM) with 5% CO2 at 37° C. and used 2-5 weeks after seeding on 12-mm T-clear inserts (Corning-Costar, Corning, N.Y., USA) (Randell, Methods Mol. Biol. 742:285 (2011)).
A single-barreled potential difference-sensing electrode was placed in the airway surface liquid by micromanipulator and used in conjunction with a macroelectrode in the serosal solution to measure transepithelial voltage using a voltmeter (World Precision Instruments). […] Transepithelial resistance was routinely measured using the EVOM system (WPI) as previously described (Tarran et al., J. Gen. Physiol. 127:591 (2006)).

CFTR = target: T2, CFTR (Homo sapiens, UniProt P13569); assay: CFTR activity in Xenopus oocytes co-expressing β2 adrenergic receptor, isoproterenol stimulated; assay type: cell-based; conditions: 10 μM isoproterenol
T2 construct: expressed in transfected cells; host or cells: Xenopus oocytes
T2 sequence (P13569 whole entry, species assumed): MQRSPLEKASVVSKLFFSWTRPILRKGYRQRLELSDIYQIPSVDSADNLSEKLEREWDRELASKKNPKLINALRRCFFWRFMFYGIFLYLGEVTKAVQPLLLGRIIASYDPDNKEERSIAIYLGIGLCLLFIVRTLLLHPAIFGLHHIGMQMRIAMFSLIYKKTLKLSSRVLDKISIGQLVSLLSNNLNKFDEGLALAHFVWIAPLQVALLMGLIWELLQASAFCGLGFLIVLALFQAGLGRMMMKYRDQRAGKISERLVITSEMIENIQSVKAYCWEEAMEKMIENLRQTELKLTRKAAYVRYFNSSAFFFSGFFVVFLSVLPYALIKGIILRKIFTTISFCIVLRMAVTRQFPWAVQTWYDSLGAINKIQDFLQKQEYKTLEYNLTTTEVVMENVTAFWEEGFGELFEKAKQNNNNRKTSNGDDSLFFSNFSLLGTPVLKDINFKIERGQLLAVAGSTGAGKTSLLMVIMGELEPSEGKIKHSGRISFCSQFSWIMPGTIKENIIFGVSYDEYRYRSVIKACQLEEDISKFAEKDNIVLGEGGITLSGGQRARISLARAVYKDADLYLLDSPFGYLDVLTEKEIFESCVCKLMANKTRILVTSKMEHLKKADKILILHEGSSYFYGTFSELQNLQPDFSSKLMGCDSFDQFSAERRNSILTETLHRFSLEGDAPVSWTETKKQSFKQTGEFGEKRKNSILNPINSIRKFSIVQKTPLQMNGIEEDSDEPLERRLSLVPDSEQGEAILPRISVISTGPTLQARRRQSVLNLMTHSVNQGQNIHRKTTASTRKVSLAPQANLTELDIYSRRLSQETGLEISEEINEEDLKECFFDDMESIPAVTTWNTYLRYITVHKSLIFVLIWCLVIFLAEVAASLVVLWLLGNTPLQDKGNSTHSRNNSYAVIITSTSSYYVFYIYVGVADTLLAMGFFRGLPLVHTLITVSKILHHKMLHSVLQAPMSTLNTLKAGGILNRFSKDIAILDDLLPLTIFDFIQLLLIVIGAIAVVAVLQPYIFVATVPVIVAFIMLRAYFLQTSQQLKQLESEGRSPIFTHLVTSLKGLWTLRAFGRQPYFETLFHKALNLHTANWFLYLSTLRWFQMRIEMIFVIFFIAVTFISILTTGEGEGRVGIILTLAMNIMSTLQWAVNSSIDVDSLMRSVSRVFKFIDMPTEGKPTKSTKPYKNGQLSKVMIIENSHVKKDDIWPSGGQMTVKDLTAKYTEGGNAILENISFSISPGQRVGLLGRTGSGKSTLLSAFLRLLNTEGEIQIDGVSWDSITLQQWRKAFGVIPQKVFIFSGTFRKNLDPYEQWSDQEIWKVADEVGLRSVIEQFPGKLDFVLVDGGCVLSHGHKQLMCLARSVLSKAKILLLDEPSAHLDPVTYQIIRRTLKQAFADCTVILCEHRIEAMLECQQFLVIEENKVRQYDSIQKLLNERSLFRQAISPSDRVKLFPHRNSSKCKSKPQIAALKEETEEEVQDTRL

B1: SPLUNC1: human SPLUNC1 (SEQ ID NO:1), 256 amino acid secreted PLUNC family protein; rSPLUNC1 is the purified V5/6His-tagged recombinant form (protein, listed as Homo sapiens)
chain: MFQTGGLIVFYGLLAQTMAQFGGLPVPLDQTLPLNVNPALPLSPTGLAGSLTNALSNGLLSGGLLGILENLPLLDILKPGGGTSGGLLGGLLGKVTSVIPGLNNIIDIKVTDPQLLELGLVQSPDGHRLYVTIPLGIKLQVNTPLVGASLLRLAVKLDITAEILAVRDKQERIHLVLGDCTHSPGSLQISLLDGLGPLPIQGLLDSLTGILNKVLPELVQGNVCPLVNEVLRGLDITLVHDIVNMLIHGLQFVIKV
modifications: V5/6His tag in recombinant form
notes: rSPLUNC1 is the purified V5/6His-tagged recombinant form
ENaC; 50 ng/ml rSPLUNC1 in 20 μl Ringer, PBS-washed cultures
  transepithelial voltage: significantly reduced the transepithelial voltage
ENaC; SPLUNC1 shRNA knockdown, 50 ng/ml rSPLUNC1
  regulation of transepithelial voltage in cultures lacking SPLUNC1: restored
ENaC; airway surface liquid left to accumulate for 24 h
  transepithelial voltage, cultures not pre-washed: without further effect
ENaC; human bronchial epithelial cultures, FIG. 2C, 2D
  onset of inhibition: 30 to 60 min
ENaC; rSPLUNC1 added to the same amiloride-treated cultures, n=12
  transepithelial voltage, addition to amiloride-treated cultures: without further effect
ENaC; rSPLUNC1 vs aprotinin addition, effects not additive
  rate of inhibition of the transepithelial voltage: identical rates
CFTR; 5 ng/ml rSPLUNC1 exposure
  CFTR activity: no inhibitory effect on CFTR activity
CFTR; injection of SPLUNC1 cRNA
  CFTR activity: no inhibitory effect on CFTR activity
